Experimental findings from the supplement of paper PMC7877785 are described below.

± gives the uncertainty stated by the source.

A short description of this series: self-splicing fitness, log relative to wild type (ln ratio); higher = more splicing; Tetrahymena group I intron in knt gene, E. coli kanamycin selection, DiMSum; sequences stand for … in CUCUCU…GGAGGGAAAAGUUAUCAGGCAUGCACCUGGUAGCUAGUCUUUAAACCAAUAGAUUGCAUCGGUUUAAAAGGCAAGACCGUCAAAUUGCGGGAAAGGGGUCAACAGCCGUUCAGUACCAAGUCUCAGGGGAAACUUUGAGAUGGCCUUGCAAAGGGUAUGGUAAUAAGCUGACGGACAUGGUCCUAACCACGCAGCCAAGUCCUAAGUCAACAGAUCUUCUGUUGAUAUGGAUGCAGUUCACAGACUAAAUGUCGGUCGGGGAAGAUGUAUUCUUCUCAUAAGAUAUAGUCGGACCUCUCCUUAAUGGGAGCUAGCGGAUGAAGUGAUGCAACACUGGAGCCGCUGGGAACUAAUUUGUAUGCGAAAGUAUAUUGAUUAGUUUUGGAGUACUCGUGGUCG
The method, boiled down: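 Colonies from six replicate transformations of E. coli BL21(DE3) were pooled and amplicon-sequenced on an Illumina HiSeq 2500. The library placed an intron with all eight P1ex-region nucleotides randomised inside the knt kanamycin-resistance gene on pET-22b(+), and cells grew overnight at 37°C or 30°C on LB agar with or without 25 μg/mL kanamycin (plus 100 μg/mL carbenicillin, 50 μM IPTG, 0.2% rhamnose). Fitness is the DiMSum error-weighted combination of wild-type-normalised replicate fold changes, kanamycin versus none.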

Regarding UAGUAGCAAUAUUACGAUCA, the “self-splicing fitness (ln)” value is, setting by setting: (30 °C) -0.544 ± 0.088; (37 °C) 0.306 ± 0.12.
In the same order, the values of GAGAAGCAAUAUUACGGAUA are -2.16 ± 0.2 and -0.942 ± 0.21.
Regarding UGAGAGCAAUAUUACGCAAU, the “self-splicing fitness (ln)” value (37 °C) was -3 ± 0.43.
With AAAGAGCAAUAUUACGCGUG, the “self-splicing fitness (ln)” value was -3.02 ± 0.14 (30 °C) and -1.79 ± 0.12 (37 °C).
In the case of GGGCAGCAAUAUUACGCGGU, the “self-splicing fitness (ln)” value (30 °C) is -3.4 ± 0.19 and the “self-splicing fitness (ln)” value (37 °C) is -1.77 ± 0.27.
With UUUAAGCAAUAUUACGUCAG, the “self-splicing fitness (ln)” value (30 °C) was -0.728 ± 0.12 and the “self-splicing fitness (ln)” value (37 °C) is -0.571 ± 0.12.
On the same counts, the results for GACGAGCAAUAUUACGAGGU are -3.81 ± 0.28 and -2.38 ± 0.27.
In the same order, the values of CGUGAGCAAUAUUACGUACU are -1.7 ± 0.12 and -0.396 ± 0.14.
In the same order, the values of GACAAGCAAUAUUACGAAGC are -2.96 ± 0.22 and -2.15 ± 0.28.
Consider CCGAAGCAAUAUUACGCGUC, for which the “self-splicing fitness (ln)” value was -3.28 ± 0.25 (30 °C) and -3.2 ± 0.32 (37 °C).
With CUCAAGCAAUAUUACGAAGU, the “self-splicing fitness (ln)” value was -3.75 ± 0.2 (30 °C) and -2.36 ± 0.21 (37 °C).
In the case of GAUCAGCAAUAUUACGCCGC, the “self-splicing fitness (ln)” value reads like this: (30 °C) -2.29 ± 0.44; (37 °C) -1.19 ± 0.28.
In the case of CCCAAGCAAUAUUACGAUCU, the “self-splicing fitness (ln)” value is -2.73 ± 0.14 (30 °C) and -3.53 ± 0.27 (37 °C).
As for GUCCAGCAAUAUUACGCGAG, the “self-splicing fitness (ln)” value runs as follows: (30 °C) -0.816 ± 0.088; (37 °C) -0.322 ± 0.1.
In the case of UAUUAGCAAUAUUACGUAUC, the “self-splicing fitness (ln)” value is -3.31 ± 0.24 (30 °C) and -2.47 ± 0.29 (37 °C).
Regarding UGUGAGCAAUAUUACGACGG, the “self-splicing fitness (ln)” value (30 °C) was -1.3 ± 0.34 and the “self-splicing fitness (ln)” value (37 °C) is -0.759 ± 0.28.
Turning to UAAAAGCAAUAUUACGGUUA, the “self-splicing fitness (ln)” value reads like this: (30 °C) 0.139 ± 0.067; (37 °C) 0.222 ± 0.079.
As for AACGAGCAAUAUUACGUGGA, the “self-splicing fitness (ln)” value by setting is: (30 °C) -2.62 ± 0.33; (37 °C) -2.15 ± 0.19.
In the same order, the values of CGCCAGCAAUAUUACGCACA are -1.68 ± 0.2 and -1.65 ± 0.27.
Consider CUUGAGCAAUAUUACGAAUA, for which the “self-splicing fitness (ln)” value (30 °C) was -3.26 ± 0.48.
With CUUAAGCAAUAUUACGAUGU, the “self-splicing fitness (ln)” value reads like this: (30 °C) -3.88 ± 0.37; (37 °C) -0.792 ± 0.21.
Consider UCUAAGCAAUAUUACGGUUG, for which the “self-splicing fitness (ln)” value reads like this: (30 °C) -2.82 ± 0.15; (37 °C) -2.61 ± 0.18.
CCUUAGCAAUAUUACGGGAA: the “self-splicing fitness (ln)” value by setting is: (30 °C) -3.02 ± 0.18; (37 °C) -2.76 ± 0.19.
Turning to CACAAGCAAUAUUACGUAUG, the “self-splicing fitness (ln)” value reads like this: (30 °C) -2.55 ± 0.095; (37 °C) -1.08 ± 0.085.
In the same order, the values of UAACAGCAAUAUUACGGAUG are -1.51 ± 0.053 and -0.304 ± 0.063.
On the same counts, the results for AUACAGCAAUAUUACGUUUA are -1.73 ± 0.078 and -1.07 ± 0.084.
On the same counts, the results for AUUUAGCAAUAUUACGUAUA are -2.53 ± 0.34 and -1.48 ± 0.21.
In the case of GAGAAGCAAUAUUACGGUUG, the “self-splicing fitness (ln)” value is -2.18 ± 0.1 (30 °C) and -1.99 ± 0.14 (37 °C).
In the same order, the values of UCGCAGCAAUAUUACGGAUG are -1.44 ± 0.13 and -2.55 ± 0.16.
UUCCAGCAAUAUUACGUUUU: the “self-splicing fitness (ln)” value reads like this: (30 °C) -3.74 ± 0.14; (37 °C) -2.65 ± 0.16.
Take GUGCAGCAAUAUUACGCUUA: the “self-splicing fitness (ln)” value is, setting by setting: (30 °C) -0.938 ± 0.092; (37 °C) 0.781 ± 0.15.
GACGAGCAAUAUUACGACAG: where the note is “37 °C”, the “self-splicing fitness (ln)” value is -1.89 ± 0.23.
The same measure, in the same setting: as for UCUGAGCAAUAUUACGCGCG, the figure is -1.69 ± 0.46; as for AGUCAGCAAUAUUACGUUGC, -2.83 ± 0.3.
As for UCACAGCAAUAUUACGUCUU, the “self-splicing fitness (ln)” value is, setting by setting: (30 °C) -1.68 ± 0.12; (37 °C) -2.4 ± 0.16.
Regarding CUGCAGCAAUAUUACGGCAG, the “self-splicing fitness (ln)” value by setting is: (30 °C) -2.63 ± 0.22; (37 °C) -2.27 ± 0.2.
Regarding GUCCAGCAAUAUUACGCUAC, the “self-splicing fitness (ln)” value (30 °C) was -4.03 ± 0.16 and the “self-splicing fitness (ln)” value (37 °C) is -2.96 ± 0.14.
In the same order, the values of UGUAAGCAAUAUUACGGUCG are 0.275 ± 0.081 and -0.0342 ± 0.098.
With GAAGAGCAAUAUUACGAUAC, the “self-splicing fitness (ln)” value (30 °C) is -2.75 ± 0.39.
As to GAGUAGCAAUAUUACGUAUC, the “self-splicing fitness (ln)” value is -3.05 ± 0.14 (30 °C) and -0.698 ± 0.11 (37 °C).
In the same order, the values of ACAGAGCAAUAUUACGUCAC are -3.39 ± 0.26 and -2.43 ± 0.41.
With AUGGAGCAAUAUUACGGCAU, the “self-splicing fitness (ln)” value was -0.641 ± 0.16 (30 °C) and -0.53 ± 0.16 (37 °C).
Take UCAUAGCAAUAUUACGUACU: the “self-splicing fitness (ln)” value by setting is: (30 °C) -4.14 ± 0.19; (37 °C) -2.96 ± 0.19.
On the same counts, the results for UUACAGCAAUAUUACGUGCC are -2.86 ± 0.15 and -0.031 ± 0.13.
With ACUAAGCAAUAUUACGCCCC, the “self-splicing fitness (ln)” value by setting is: (30 °C) -0.566 ± 0.13; (37 °C) 0.127 ± 0.17.
In the same order, the values of GCGCAGCAAUAUUACGGGAC are -2.13 ± 0.097 and 0.393 ± 0.096.
On the same counts, the results for ACGAAGCAAUAUUACGUCGA are -2.34 ± 0.12 and -1.65 ± 0.1.
On the same counts, the results for UAUCAGCAAUAUUACGAGGA are -0.877 ± 0.13 and -1.39 ± 0.14.
Take ACACAGCAAUAUUACGCCCG: the “self-splicing fitness (ln)” value is -0.876 ± 0.092 (30 °C) and -0.533 ± 0.12 (37 °C).
In the case of UCCAAGCAAUAUUACGCGCU, the “self-splicing fitness (ln)” value reads like this: (30 °C) -2.67 ± 0.21; (37 °C) -1.52 ± 0.23.
Turning to UCUCAGCAAUAUUACGCAGU, the “self-splicing fitness (ln)” value was -2.93 ± 0.16 (30 °C) and -1.96 ± 0.19 (37 °C).
For CCUCAGCAAUAUUACGGAGA, the “self-splicing fitness (ln)” value runs as follows: (30 °C) -2.8 ± 0.18; (37 °C) -1.4 ± 0.15.
In the case of GGAUAGCAAUAUUACGACAA, the “self-splicing fitness (ln)” value was -0.923 ± 0.12 (30 °C) and -0.865 ± 0.14 (37 °C).
On to GCGGAGCAAUAUUACGCUGA, for which the “self-splicing fitness (ln)” value (30 °C) is -3.01 ± 0.35.
Take AAUCAGCAAUAUUACGGGCU: the “self-splicing fitness (ln)” value by setting is: (30 °C) -2.04 ± 0.081; (37 °C) -1.22 ± 0.094.
On the same counts, the results for GCCUAGCAAUAUUACGUGUG are -1.85 ± 0.057 and -0.937 ± 0.065.
On the same counts, the results for UAGCAGCAAUAUUACGGGGU are -3.72 ± 0.14 and -2.99 ± 0.16.
Consider CACCAGCAAUAUUACGGCCA, for which the “self-splicing fitness (ln)” value (30 °C) was -0.747 ± 0.067 and the “self-splicing fitness (ln)” value (37 °C) is -1.22 ± 0.082.
For the sequence UCCUAGCAAUAUUACGUUAA, the “self-splicing fitness (ln)” value by setting is: (30 °C) -3.69 ± 0.28; (37 °C) -2.32 ± 0.26.
Consider CUAUAGCAAUAUUACGUUAC, for which the “self-splicing fitness (ln)” value was -3.45 ± 0.25 (30 °C) and -2.14 ± 0.33 (37 °C).
In the case of AGAUAGCAAUAUUACGUUUG, the “self-splicing fitness (ln)” value is -3.06 ± 0.23 (30 °C) and -1.21 ± 0.17 (37 °C).
For the sequence UGAGAGCAAUAUUACGAUGU, the “self-splicing fitness (ln)” value (30 °C) was -3.27 ± 0.25.
